Assay results published in patent US20170081400A1 (CEPHALON, published 2017).

T1: human TL1A extracellular domain with N-terminal HIS and FLAG tag (human) (UniProt O95150)
T1 sequence: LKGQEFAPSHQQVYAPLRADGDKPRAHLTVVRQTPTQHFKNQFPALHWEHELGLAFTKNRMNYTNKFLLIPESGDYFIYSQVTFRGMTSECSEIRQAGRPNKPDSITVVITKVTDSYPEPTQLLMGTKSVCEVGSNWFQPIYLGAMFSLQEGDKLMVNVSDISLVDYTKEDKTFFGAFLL

T2: human TL1A extracellular domain with N-terminal HIS and FLAG tag (human, UniProt O95150 72-251)
T2 construct: whole entry named. ~70 kDa fraction purified by gel filtration
T2 sequence: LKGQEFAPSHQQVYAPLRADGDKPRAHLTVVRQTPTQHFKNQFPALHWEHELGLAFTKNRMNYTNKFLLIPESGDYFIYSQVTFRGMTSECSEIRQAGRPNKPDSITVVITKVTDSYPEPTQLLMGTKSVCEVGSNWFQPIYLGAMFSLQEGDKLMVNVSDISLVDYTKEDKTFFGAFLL

T3: human TL1A extracellular domain with N-terminal HIS and FLAG tag (human, UniProt O95150 72-251)
T3 sequence: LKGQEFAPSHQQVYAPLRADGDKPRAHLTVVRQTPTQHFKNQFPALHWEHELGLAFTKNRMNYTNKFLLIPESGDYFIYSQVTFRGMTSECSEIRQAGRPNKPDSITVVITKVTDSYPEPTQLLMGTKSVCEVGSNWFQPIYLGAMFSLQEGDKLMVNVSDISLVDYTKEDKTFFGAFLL


What was measured:
[1] = target: T1, human TL1A extracellular domain with N-terminal HIS and FLAG tag (human); test: cell-based or functional assay
[2] = target: T2, human TL1A extracellular domain with …; test: SPR run 1; purified antibody on Protein A; TL1A 10 ug/mL; timepoint 59
Excerpt: (§1) 1.5. Antibody expression and antigen binding as determined by SPR. Using a CM5 sensor chip (GE Healthcare) Protein A (Pierce) was coupled to the chip surface using an amine coupling kit (GE Healthcare). Protein A was coupled on flow cell 1 and 2 (or alternatively 3 and 4) using a BIACORE® T200. […] The amount of supernatant or purified protein (as well as the concentration) injected during the capture stage varied between runs and is specified in the header of the Tables 3-11. At the end of injection of the supernatant or purified antibody the change in response units was measured. This value was reported as Capture Level in Tables 3-11. […] The response units were measured prior to the end of the dissociation phase. […] The sensorgrams were double referenced (flow cell 2 is subtracted from flow cell 1 and a buffer blank). As there were a large number of antibody variants to screen, these were screened across different runs (Tables 3-11). […] A summary of the conditions used in each run is below:
(§2) 2.1. […] In some experiment the antibodies were purified using Protein A chromatography (See 1.4) and purified antibodies were used in BIACORE® (GE Healthcare) experiments.

[3] = target: T2, human TL1A extracellular domain with …; test: SPR run 1; purified antibody on Protein A; TL1A 10 ug/mL; timepoint 590
Excerpt: as §1, §2

[4] = target: T3, human TL1A extracellular domain with …; test: cell-based or functional assay
[5] = target: T3, human TL1A extracellular domain with …; test: SPR Run 8, antibody on Protein A, TL1A 5 ug/mL, timepoint 44
Excerpt: as §1, §2

[6] = target: T3, human TL1A extracellular domain with …; test: SPR Run 8, antibody on Protein A, TL1A 5 ug/mL, timepoint 590
Excerpt: as §1, §2

| Antibody IC50, TL1A induced caspase potency assay in TF-1 cells [1] [ng/mL] | Fold improvement over 320-179, TL1A induced caspase potency assay in TF-1 cells [1] [fold] | TL1A Binding Level (Early) [2] [RU] | TL1A Binding Level (Late) [3] [RU] | Antibody IC50, TL1A induced caspase potency assay in TF-1 cells [4] [ng/mL] | Fold improvement over 320-179, TL1A induced caspase potency assay in TF-1 cells [4] [fold] | TL1A Binding Level (Early) [5] [RU] | TL1A Binding Level (Late) [6] [RU] | Binder |
| --- | --- | --- | --- | --- | --- | --- | --- | --- |
| 10 | 3 | 141 | 118 |  |  |  |  | 320-184 (antibody, human IgG1, name in Kabat numbering, V domains shown, human IgG1, lambda) VH: QVQLVQSGAEVKKPGASVKVSCKASGYTFTSYDINWVRQAPGQGLEWMGWLNPNSGNTGYAQKFQGRVTMTADRSTSTAYMELSSLRSEDTAVYYCAREVPETAAFEYWGQGTLVTVSS VL: QSVLTQPPSVSGAPGQRVTISCTSSSSDIGAGLGVHWYQQLPGTAPKLLIEGYYNRPSGVPDRFSGSKSGTSASLTITGLAPEDEGDYYCQSYDGTLSALFGGGTKLTVLG |
|  |  |  |  | 3 | 7 | 128 | 129 | 320-592 (antibody, human IgG1, name in Kabat numbering, V domains shown, full-length human IgG1, lambda) VH: QVQLVQSGAEVKKPGASVKVSCKASGYTFTSYDINWVRQAPGQGLEWMGWLNPNSGYTGYAQKFQGRVTMTADRSTSTAYMELSSLRSEDTAVYYCAREVPETAAFEYWGQGTLVTVSS VL: QSVLTQPPSVSGAPGQRVTISCTSSSSDIGAALGVHWYQQLPGTAPKLLIEGYYNRPSGVPDRFSGSKSGTSASLTITGLLPEDEGDYYCQSWDGTLSALFGGGTKLTVLG |
|  |  |  |  | 3 | 27 | 108 | 103 | 320-583 (antibody, human IgG1, name in Kabat numbering, V domains shown, full-length human IgG1, lambda) VH: QVQLVQSGAEVKKPGASVKVSCKASGYTFTSYDINWVRQAPGQGLEWMGWLNPNSGNTGYAQKFQGRVTMTADRSTSTAYMELSSLRSEDTAVYYCAREVPETAAFEYWGQGTLVTVSS VL: QSVLTQPPSVSGAPGQRVTISCTSSSSDIGAALGVHWYQQLPGTAPKLLIEGYYNRPSGVPDRFSGSKSGTSASLTITGLLPEDEGDYYCQSWDGTLSALFGGGTKLTVLG |
|  |  |  |  | 8 | 10 | 103 | 98 | 320-584 (antibody, human IgG1, name in Kabat numbering, V domains shown, full-length human IgG1, lambda) VH: QVQLVQSGAEVKKPGASVKVSCKASGYTFTSYDINWVRQAPGQGLEWMGWLNPNSGNTGYAQKFQGRVTMTADRSTSTAYMELSSLRSEDTAVYYCAREVPETAAFEYWGQGTLVTVSS VL: QSVLTQPPSVSGAPGQRVTISCTSSSSDIGAGSGVHWYQQLPGTAPKLLIEGYYNRPSGVPDRFSGSKSGTSASLTITGLLPEDEGDYYCQSWDGTLSALFGGGTKLTVLG |
|  |  |  |  | 2 | 25 | 108 | 103 | 320-586 (antibody, human IgG1, name in Kabat numbering, V domains shown, full-length human IgG1, lambda) VH: QVQLVQSGAEVKKPGASVKVSCKASGYTFTSYDINWVRQAPGQGLEWMGWLNPNSGNTGYAQKFQGRVTMTADRSTSTAYMELSSLRSEDTAVYYCAREVPETAAFEYWGQGTLVTVSS VL: QSVLTQPPSVSGAPGQRVTISCTSSSSDIGAGLGVLWYQQLPGTAPKLLIEGYYNRPSGVPDRFSGSKSGTSASLTITGLLPEDEGDYYCQSWDGTLSALFGGGTKLTVLG |
|  |  |  |  | 3 | 13 | 116 | 109 | 320-585 (antibody, human IgG1, name in Kabat numbering, V domains shown, full-length human IgG1, lambda) VH: QVQLVQSGAEVKKPGASVKVSCKASGYTFTSYDINWVRQAPGQGLEWMGWLNPNSGNTGYAQKFQGRVTMTADRSTSTAYMELSSLRSEDTAVYYCAREVPETAAFEYWGQGTLVTVSS VL: QSVLTQPPSVSGAPGQRVTISCTSSSSDIGAGQGVHWYQQLPGTAPKLLIEGYYNRPSGVPDRFSGSKSGTSASLTITGLLPEDEGDYYCQSWDGTLSALFGGGTKLTVLG |
|  |  |  |  | 3 | 20 | 129 | 128 | 320-595 (antibody, human IgG1, name in Kabat numbering, V domains shown, full-length human IgG1, lambda) VH: QVQLVQSGAEVKKPGASVKVSCKASGYTFTSYDINWVRQAPGQGLEWMGWLNPNSGYTGYAQKFQGRVTMTADRSTSTAYMELSSLRSEDTAVYYCAREVPETAAFEYWGQGTLVTVSS VL: QSVLTQPPSVSGAPGQRVTISCTSSSSDIGAGLGVLWYQQLPGTAPKLLIEGYYNRPSGVPDRFSGSKSGTSASLTITGLLPEDEGDYYCQSWDGTLSALFGGGTKLTVLG |
|  |  |  |  | 20 | 1 | 120 | 109 | 320-589 (antibody, human IgG1, name in Kabat numbering, V domains shown, full-length human IgG1, lambda) VH: QVQLVQSGAEVKKPGASVKVSCKASGYTFTSYDINWVRQAPGQGLEWMGWLNPNSGYTGYAQKFQGRVTMTADRSTSTAYMELSSLRSEDTAVYYCAREVPETAAFEYWGQGTLVTVSS VL: QSVLTQPPSVSGAPGQRVTISCTSSSSDIGAGSGVHWYQQLPGTAPKLLIEGYYNRPSGVPDRFSGSKSGTSASLTITGLLPEDEGDYYCQSYDGTLSALFGGGTKLTVLG |
|  |  |  |  | 5 | 12 | 134 | 132 | 320-594 (antibody, human IgG1, name in Kabat numbering, V domains shown, full-length human IgG1, lambda) VH: QVQLVQSGAEVKKPGASVKVSCKASGYTFTSYDINWVRQAPGQGLEWMGWLNPNSGYTGYAQKFQGRVTMTADRSTSTAYMELSSLRSEDTAVYYCAREVPETAAFEYWGQGTLVTVSS VL: QSVLTQPPSVSGAPGQRVTISCTSSSSDIGAGQGVHWYQQLPGTAPKLLIEGYYNRPSGVPDRFSGSKSGTSASLTITGLLPEDEGDYYCQSWDGTLSALFGGGTKLTVLG |
|  |  |  |  | 2 | 10 | 132 | 124 | 320-591 (antibody, human IgG1, V domains shown, full-length human IgG1, lambda) VH: QVQLVQSGAEVKKPGASVKVSCKASGYTFTSYDINWVRQAPGQGLEWMGWLNPNSGYTGYAQKFQGRVTMTADRSTSTAYMELSSLRSEDTAVYYCAREVPETAAFEYWGQGTLVTVSS VL: QSVLTQPPSVSGAPGQRVTISCTSSSSDIGAGLGVLWYQQLPGTAPKLLIEGYYNRPSGVPDRFSGSKSGTSASLTITGLLPEDEGDYYCQSYDGTLSALFGGGTKLTVLG |
|  |  |  |  | 4 | 5 | 128 | 123 | 320-588 (antibody, human IgG1, name in Kabat numbering, V domains shown, full-length human IgG1, lambda) VH: QVQLVQSGAEVKKPGASVKVSCKASGYTFTSYDINWVRQAPGQGLEWMGWLNPNSGYTGYAQKFQGRVTMTADRSTSTAYMELSSLRSEDTAVYYCAREVPETAAFEYWGQGTLVTVSS VL: QSVLTQPPSVSGAPGQRVTISCTSSSSDIGAALGVHWYQQLPGTAPKLLIEGYYNRPSGVPDRFSGSKSGTSASLTITGLLPEDEGDYYCQSYDGTLSALFGGGTKLTVLG |
|  |  |  |  | 6 | 3 | 130 | 121 | 320-590 (antibody, human IgG1, name in Kabat numbering, V domains shown, full-length human IgG1, lambda) VH: QVQLVQSGAEVKKPGASVKVSCKASGYTFTSYDINWVRQAPGQGLEWMGWLNPNSGYTGYAQKFQGRVTMTADRSTSTAYMELSSLRSEDTAVYYCAREVPETAAFEYWGQGTLVTVSS VL: QSVLTQPPSVSGAPGQRVTISCTSSSSDIGAGQGVHWYQQLPGTAPKLLIEGYYNRPSGVPDRFSGSKSGTSASLTITGLLPEDEGDYYCQSYDGTLSALFGGGTKLTVLG |
|  |  |  |  | 4 | 15 | 126 | 124 | 320-593 (antibody, human IgG1, name in Kabat numbering, V domains shown, full-length human IgG1, lambda) VH: QVQLVQSGAEVKKPGASVKVSCKASGYTFTSYDINWVRQAPGQGLEWMGWLNPNSGYTGYAQKFQGRVTMTADRSTSTAYMELSSLRSEDTAVYYCAREVPETAAFEYWGQGTLVTVSS VL: QSVLTQPPSVSGAPGQRVTISCTSSSSDIGAGSGVHWYQQLPGTAPKLLIEGYYNRPSGVPDRFSGSKSGTSASLTITGLLPEDEGDYYCQSWDGTLSALFGGGTKLTVLG |
